In US20240117035A1 (published 2024):

Biological target: CD3 on CD3+ Jurkat cells (human, UniProt P07766 23-207)
Experiment: FACS binding, Jurkat cells

Chain of CD3 on CD3+ Jurkat cells (P07766 23-207): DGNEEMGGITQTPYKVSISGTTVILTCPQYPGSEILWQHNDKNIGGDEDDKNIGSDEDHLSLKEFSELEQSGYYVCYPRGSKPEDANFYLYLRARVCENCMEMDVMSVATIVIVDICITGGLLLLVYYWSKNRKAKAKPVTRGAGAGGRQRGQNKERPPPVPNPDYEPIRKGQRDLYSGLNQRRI

B1: m-13/CD3-v2 (antibody)
chain 1: QLQLQQSGTELVRPGSSVKISCKASGYAFSNYWMNWVKQRPGQGLEWIGQIYPGNGDTKYNGNFKGKATLTADKSSSTAYMQLSSLTSEDSADYFCARYYRGNCFDYWGQGTTLTVSS
chain 2: DIVLTQSPSSLTVTAGEKVTMSCKSSQSLLNSGNQKNYLTWYQQKPGQPPKLLIYWASTRDSGVPARFTGSGSGTDFTLTINSVQAEDLAVYYCQNAYTYPLTFGAGTKLEIK
chain 3: EVQLVESGGGLVKPGGSLKLSCAASGFTFSTYAMNWVRQAPGKGLEWVARIRSKYNNYATTYADSVKDRFTISRDDSKNTAYLQMNNLRTEDTAVYYCVRHGNWGNSYISYWAYWGQGTTVTVSS
chain 4: not shown
**Q.** Which EC50 does the source give for B1 here?
**A.** 26.5 nM
